{
  "source": "patent US20080102477",
  "proteins": {"B1": {"name": "PCAF (amino acids 352-832) GST-fusion protein (protein)", "chain": "MLEEEVYSQNSPIWDQDFLSASSRTSQLGIQTVINPPPVAGTISYNSTSSSLEQPNAGSSSPACKASSGLEANPGEKRKMTDSHVLEEAKKPRVMGDIPMELINEVMSTITDPAAMLGPETNFLSAHSARDEAARLEERRGVIEFHVVGNSLNQKPNKKILMWLVGLQNVFSHQLPRMPKEYITRLVFDPKHKTLALIKDGRVIGGICFRMFPSQGFTEIVFCAVTSNEQVKGYGTHLMNHLKEYHIKHDILNFLTYADEYAIGYFKKQGFSKEIKIPKTKYVGYIKDYEGATLMGCELNPRIPYTEFSVIIKKQKEIIKKLIERKQAQIRKVYPGLSCFKDGVRQIPIESIPGIRETGWKPSGKEKSKEPRDPDQLYSTLKSILQQVKSHQSAWPFMEPVKRTEAPGYYEVIRFPMDLKTMSERLKNRYYVSKKLFMADLQRVFTNCKEYNPPESEYYKCANILEKFFFSKIKEAGLIDK"}},
  "biological_target": "T1, BubR1 (amino acids 1-514) GST-fusion protein, O60566",
  "T1 chain": "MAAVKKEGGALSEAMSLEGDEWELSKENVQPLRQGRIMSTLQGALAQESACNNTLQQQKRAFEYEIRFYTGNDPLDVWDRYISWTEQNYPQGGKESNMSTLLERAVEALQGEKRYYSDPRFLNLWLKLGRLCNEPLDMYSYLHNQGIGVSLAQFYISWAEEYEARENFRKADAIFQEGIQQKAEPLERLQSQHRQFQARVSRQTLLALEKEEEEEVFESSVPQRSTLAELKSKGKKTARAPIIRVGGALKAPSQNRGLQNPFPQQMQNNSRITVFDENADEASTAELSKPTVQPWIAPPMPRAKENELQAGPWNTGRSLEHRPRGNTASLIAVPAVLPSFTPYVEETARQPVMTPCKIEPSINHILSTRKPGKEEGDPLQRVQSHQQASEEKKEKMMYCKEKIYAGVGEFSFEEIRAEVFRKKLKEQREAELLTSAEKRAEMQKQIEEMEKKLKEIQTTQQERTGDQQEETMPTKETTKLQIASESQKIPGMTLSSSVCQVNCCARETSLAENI",
  "data": [
    {"protein": "B1", "values": [
      {"measurement": "in vitro acetylation assay (Western blot with anti-acetyl lysine antibodies; MALDI-MS and MS/MS of pepsin peptides)", "result": "the appearance of a 42 Da acetylation peak in the presence of active PCAF (PCAF 352-832) confirmed that lysine 250 (K250) is the acetylation site of BubR1"}
    ]}
  ]
}
